Results as given in article PMC7000685 (Nature Communications, 2020).
Numbering of substitutions follows the chain as printed. Numbers in names are those of the source.

B1: human glutamine fructose-6-phosphate amidotransferase-1 (GFAT-1) isoform 2, full length, with internal His6-tag (enzyme, UniProt Q06210-2 1-681, looked up)
chain: MCGIFAYLNYHVPRTRREILETLIKGLQRLEYRGYDSAGVGFDGGNDKDWEANACKIQLIKKKGKVKALDEEVHKQQDMDLDIEFDVHLGIAHTRWATHGEPSPVNSHPQRSDKNNEFIVIHNGIITNYKDLKKFLESKGYDFESETDTETIAKLVKYMYDNRESQDTSFTTLVERVIQQLEGAFALVFKSVHFPGQAVGTRRGSPLLIGVRSEHKLSTDHIPILYRTGKDKKGSCNLSRVDSTTCLFPVEEKAVEYYFASDASAVIEHTNRVIFLEDDDVAAVVDGRLSIHRIKRTAGDHPGRAVQTLQMELQQIMKGNFSSFMQKEIFEQPESVVNTMRGRVNFDDYTVNLGGLKDHIKEIQRCRRLILIACGTSYHAGVATRQVLEELTELPVMVELASDFLDRNTPVFRDDVCFFLSQSGETADTLMGLRYCKERGALTVGITNTVGSSISRETDCGVHINAGPEIGVASTKAYTSQFVSLVMFALMMCDDRISMQERRKEIMLGLKRLPDLIKEVLSMDDEIQKLATELYHQKSVLIMGRGYHYATCLEGALKIKEITYMHSEGILAGELKHGPLALVDKLMPVIMIIMRDHTYAKCQNALQQVVARQGRPVVICDKEDTETIKNTKRTIKVPHSVDCLQGILSVIPLQLLAFHLAVLRGYDVDFPRNLAKSVTVE
modifications: phosphoserine at 243 (found in mass spectrometry and in the crystal structure)
notes: human GFAT-1 isoform 2 (glutamine fructose-6-phosphate amidotransferase-1, EC 2.6.1.16), full length; residue numbers run to 681 (C-loop 670-681); His6 inserted between Gly299 and Asp300; Initial methionine removed in the purified protein; also called GFAT-1 WT; wild type GFAT-1; source: Sf21 insect cells (MultiBac baculovirus), purified (Ni-NTA, SEC); not shown: His6, internal (after residue …)
B2: human GFAT-1 G451E (isoform 2, full length, with internal His6-tag) (enzyme, UniProt Q06210-2 1-681, looked up)
chain: B1 chain with G451E
notes: human GFAT-1 isoform 2, full length, with G451E; His6 inserted between Gly299 and Asp300 (made from pFL-hGFAT1-His299); Same construct as m1 with the point mutation G451E; source: Sf21 insect cells (MultiBac baculovirus), purified (Ni-NTA, SEC)

Molecular target: the molecule itself
Experiment: crystal structure; sitting-drop vapor diffusion at 20 °C, 8 mg/ml GFAT-1; 0.1 M Bis tris propane pH 8.5-9.0, 0.2-0.4 M potassium sodium tartrate, 20% (w/v) PEG3350; SEC buffer with Frc6P, 50 mM L-Arg and 50 mM L-Glu; two monomers in the asymmetric unit

| Protein | stoichiometry N | binding result |
| --- | --- | --- |
| B1 | 2 |  |
| B2 |  | binds |
